Reference: the DeepSol protein solubility set

experiment: soluble on expression in E. coli; label from the status in PepcDB or PDB records

Row | Sequence | soluble on expression in E. coli
1 | MKKSLDEHAERFSDHADAYDEDQDSAAYRACVNFVVDHAAPESDDVVLDLGTGTGAIAFALASDAAEIIGRDISDGMLEKAREKADGRGVENVSFGDGRFRAPNVDRPVDIVTSNFAMHHLGDDEKREAIDTIADLGPRRIVLGDVMLFGDDDPDAPFYSPEVDDPATVGVLADAFTDAGYALTAVEMVTEQAGVLVAERVKSDLEHHHHHH | soluble
2 | MGSDKIHHHHHHMTQLFLHSDTPNEKELISIYEKAVSEAVELYIFSAYLTHWDVKNKLNSKLQEFKFIFGQDFGLSKKEAIRKVLKWLPSHLKFTLMVAQGIQGFHPKAVFWKNDKNEYYALIGSSNLTHAAFNSNYEANILTKISEQDFIKVKSWADEIAMKSIPVSEDWLEEYQEAEINYKKSTVRQSVMDKLFMEMPNYNQELIAARRKQMRNHQTVCNQLKNLIKQCAAGKIDNNDFYGEFNKLWSWKSENKGEGVGNRFQDKTWKRTGKSSDFRKLCIAIQSVFDAPLTERDNVVAKQIDWLKECGVSTRGSVFSEMLCQEYPDRYPVLNAPIKKFLEENKFKSAKGASEGSKYIDLSMKLRALLAMQSEIKDLAELDVLVQAEYRNRTDIDWE | not soluble
3 | MLDYIPWIGNGYRYGNGYKGVAGAGHSATNGSPAGNTSSTTQSNDVAPTFSNVGVGLKANVQGTLGDSQTTTVGGHQWPTLDPANLQLWTGAEWRNDSKTQNNTTTNENHTKFASATGSGQQQGSTTTTSAGNPDSLKQDKADKSGNSISVQEATSGDNLTNYTNLPPNLTPTSDWPNALSFTNKNNAQRAQLFLRGLLGSIPVLVNNLEHHHHHH | not soluble
4 | VQASDRTWQSNFIRRWYFTETVEYRPLVKYDASMSWDERTVSALEGAFRSEVRARRVNGPHRDVIVSLDGAEFLVRWLTTGWPRQVAEALHATSRPDILAAPTMSPGARKAAHDAGVGWVDESGAADIHYRNTSTGTTLVIETKGAPPAPLDARIGWRRATLAVCEALLANIAGPTVASVVEATGLSMGSSAQALKFLEKNGHLASATARGPKSARLIVDRDALLDAYAEAADKLRSPISISTGVLWRDPTAGVVKAGQLWDAAGIEWAATSALSASLLAPMQTEIAPMEIYVPGRSWSDLRRAAMAAGLQEIAGGRLILRFFPTPACARLTEQNLQGFRSMLWPRVYADLRTAGVRGEDAAEHLREAMTK | not soluble
5 | MSLKTELTLLEQTLTLHRFPKRNNETLQAWDAGDEYLIQHVEQLALPESSHIVIINDHFGTLSCWFSQKHKVSMMSDSYIAHQATQANLQQNQRPPVQLLTTLDPVPNDASVVLLQLPKSNRHLVWILSQLRKALSPNIPIIAVNKAKEIHTSTLNLFEKHLGPTTTSLAWKKHRLVFSSATVNPANEVNPECGWSIEPYAITLTNLPNVYSGESLDLGSRFILEHLPADPTLEDFIDLGCGNGVLSVRLGQLNPQAKITCVDESFMAIASAQKNLHDNLGKRDIHCIANNCLDGFPAHSSSMIVCNPPFHQQQTITDHIAWQMFCDSKHVLKKGGKLWVIGNRHLGYDVKLARLFGKSHVRVIANNSKFVILQAIKSEGHHHHHH | soluble
6 | MTKITYKVASEHPFPADAAAAAASLAAYEALDDVTKARVDQMVDWIMKNCLWQFHSRAWDRKRQNEGILGIAAKLLAGEPFTPETPEDRCYWVDSVTLQRAYLATCPWLATMSKGDIRALMKELHARVDYLTVTGSLNEELTDLHYLEHHHHHH | not soluble
7 | MGSDKIHHHHHHMDASKNSDFKDTWLVVPCYNEATVIREVLENALKTFPNIVAVNDGSPDNSAEEIHAAGAHLVNHPVNLGQGAAIQTGIEYARKQPGAKYFVTFDADGQHQVKDVIRMVERLRAEDVDIIVGTRFGRPRQADDQVPLIKRLVLRTVVLLSPKTRRLGLTDAHNGLRVFNQKVAQEMNIRMNGMSHASEIVDQIDERGWRISEEPVDILYTEYSMSKGQSLLNGVNILADGFLARRLP | not soluble
8 | LYLEQSDIEGHIGVFGSTGSGKTTTLATIACGAAEAGLPVVVADWHGEYQRLVGGGGCRPRVIDPGREGGVNPLSLGWDYSVKTALLASALGLTEPQHYMLLKLLEEHEPRSLIELHSMVEDVEENSRWDREVKRGLMRRLGPLASRAGRSLVEGEGPPIGGRGLYIVDTGSIGNVQLRKTYSILLAAYLQYKAYSRELGPLLLVVDEAHNMFDGEESFPSIMMAESRKFGLYIALATQNPHLLPLRAVSNTNTKIVHSLRWWRDLESIASALSLPRETASKLPHLGRGEAVVYAPSLGYPVLAKIVPPE | not soluble
